Experimental data: patent publication US9657092B2, “S100A4 antibodies and therapeutic uses thereof” (LYKERA BIOMED SA, priority 2010, dated 2017)

Assays:
Assay type in all cases: binding
[1] = target: T1, Human S100P (Homo sapiens, UniProt P25815); assay: ELISA specificity (reaction pattern of mAb); design: key: ++++ positive reaction; − no reaction
T1 construct: made in house
T1 sequence (P25815 1-95): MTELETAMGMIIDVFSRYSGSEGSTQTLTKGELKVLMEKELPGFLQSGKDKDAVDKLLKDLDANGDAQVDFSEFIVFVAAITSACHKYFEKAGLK

[2] = target: T2, Human S100A4 (Homo sapiens, UniProt P26447); assay: ELISA specificity (reaction pattern of mAb); design: the final full-length recombinant S100A4 protein has an additional Gly-Ser-His at the N-terminus; His tag (pET28a) (N); made in house; host or cells: E. coli Tuner (DE3); key to Reaction Pattern of mAb in ELISA, Human S100A4: ++++ positive reaction; − no reaction
Target sequence in this assay (P26447 with tags, fused parts or gaps): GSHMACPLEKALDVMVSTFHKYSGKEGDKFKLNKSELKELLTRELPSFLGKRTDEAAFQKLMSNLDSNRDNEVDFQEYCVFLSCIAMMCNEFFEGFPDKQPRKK

[3] = target: T3, Human S100A2 (Homo sapiens, UniProt P29034); assay: ELISA specificity (reaction pattern of mAb); design: key: ++++ positive reaction; − no reaction
T3 construct: purchased Abnova

[4] = target: T2, Human S100A4; assay: Western-blot of cell and tumor extracts; design: Levels of S100A4 expression in total extracts from tumor cell lines of different origins; endogenous in cells; host or cells: human tumour cell lines (MiaPACA-2, Panc1, BxPC3, Colo 205, MDA-MB-231 and others) and xenograft tumours from HCT116, MiaPACA-2, BxPC3; details: denaturalized protein, reduced conditions
Procedure: Cell and tumors samples were rinsed twice with PBS and immediately lysed with ice cold Cell Lysis Buffer (150 mM NaCl, 1% IGEPAL CA630, 5 mM EDTA, 100 μg/mL PMSF, 1 mM Na3VO4, 1 mM NaF and 50 mM Tris pH 7.4). Lysates were cleared by centrifugation and the protein concentration was quantified with the Bradford reagent (Bio-Rad). Total extracts (50 μg) were resolved in a 12% SDS-polyacrilamide gel (PAGE) electrophoresis under reduced conditions and transferred to BioTrace™ PVDF membranes (PALL corporation). Membranes were blocked for 1 hour in TBS plus 0.1% Tween-20 with 5% skimmed dried milk, incubated overnight with the relevant primary antibody and then with the secondary antibodies for 1 hour in blocking buffer, washing three times for 10 min in TBS plus 0.1% Tween-20 after each incubation. Signals were developed using the ECL™ Western Blotting Detection Reagents (Amersham) and exposed to Hyperfilm™ ECL (Amersham).
Target sequence in this assay (P26447 whole entry): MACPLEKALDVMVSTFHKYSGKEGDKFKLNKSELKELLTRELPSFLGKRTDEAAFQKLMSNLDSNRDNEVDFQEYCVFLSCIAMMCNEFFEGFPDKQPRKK

T3 sequence (P29034 whole entry): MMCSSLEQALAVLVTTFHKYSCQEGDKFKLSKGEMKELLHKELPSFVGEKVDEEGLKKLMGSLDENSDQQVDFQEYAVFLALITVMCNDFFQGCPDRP

B1: 5C3: mouse monoclonal anti-S100A4 antibody, IgG1, from hybridoma ECACC 10022401; VL SEQ ID NO: 1, VH SEQ ID NO: 2 (antibody, V domains shown)
VH: EAQLQQSGAELVKPGASVKLSCTASGFNIQETYMHWVKQRPEQGLEWIGRIDPANGNTKDDPKFQGKASITVDTSSNTAYLQLSSLTSEDTAVYYCASSYAMDYWGQGTSVTVSS
VL: DVLMTQTPLSLPVSLGDQASISCRSSQSIVHSNGNTYLEWYLQKTGQSPELLIYKVSNRLSGVPDRFSGSGSGTDFTLKISRVEAEDLGVYYCFQGSHVPFTFGSGTKLEIK
modifications: VH region of the 5C3 monoclonal antibody; VL region of the 5C3 monoclonal antibody
[1]
  Reaction Pattern of mAb in ELISA, Human S100P: −
[2]
  Reaction Pattern of mAb in ELISA, Human S100A4: ++++
[2]; purified protein
  reaction with human S100A4 by ELISA: reacted
[3]
  Reaction Pattern of mAb in ELISA, Human S100A2: −
[4]
  reaction with human S100A4 in Western-blot: react with human S100A4
